Publication doi:10.1101/164319

Target: Arp2/3 complex from strain Arp2cys-Arp3cys, labeled with Alexa 488 and Alexa 594 (Schizosaccharomyces pombe) (UniProt P78774)
Assay: FRET or BRET

UniProt P78774, sequence (P78774 whole entry, looked up, one chain of several): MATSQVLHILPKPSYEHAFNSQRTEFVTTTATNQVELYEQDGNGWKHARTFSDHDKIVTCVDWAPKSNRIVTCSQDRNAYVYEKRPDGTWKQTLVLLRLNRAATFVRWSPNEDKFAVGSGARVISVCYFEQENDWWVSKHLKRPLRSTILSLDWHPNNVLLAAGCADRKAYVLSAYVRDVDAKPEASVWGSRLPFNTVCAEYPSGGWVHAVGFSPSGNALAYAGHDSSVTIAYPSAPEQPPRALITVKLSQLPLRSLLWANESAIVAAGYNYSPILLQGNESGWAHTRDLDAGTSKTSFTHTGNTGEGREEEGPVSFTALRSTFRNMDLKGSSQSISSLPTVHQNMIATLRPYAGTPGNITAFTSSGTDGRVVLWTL

“S. pombe Wsp1-CA (541SC–574D) (from UniProt O36027 541-574) (domain or fragment)” showed an increase of mean ETeff at 20 μM CA of 0.06.

Substance “S. pombe Wsp1p-VCA (497Q–574D) (from UniProt O36027 497-574) (domain or fragment)” has an increase of mean ETeff at 20 μM VCA of 0.13.

“VCA crosslinked to an actin monomer (actin-VCA) (from UniProt O36027 497-574; P68139 1-377) (complex)” showed an increase of mean ETeff at 2 μM actin-VCA of 0.12.
